B1: RAB17 promoter DRE fragment (dsDNA)
DNA 1: TAAATTCAGCCTGACCGACCGCCTGCATTGAATA
DNA 2: TATTCAATGCAGGCGGTCGGTCAGGCTGAATTTA
B2: RAB17 DRE mutant fragment (dsDNA)
DNA 1: TAAATTCAGCCTGTTTTTTCGCCTGCATTGAATA
DNA 2: TATTCAATGCAGGCGAAAAAACAGGCTGAATTTA

Columns and labels:
Conditions in all cases: tags: 20 aa N-terminal tag incl; 6xHis (pET28)
[1] = target: ZmSRTF18 (SPL VAR4) (C71S) (Zea mays, C71S); assay: EMSA; with or without DTT; strong and specific also with 300 mM KCl and salmon DNA
Protocol: (§1) In gel-shift assays, also known as electrophoretic mobility shift assays (EMSA), DNA with bound protein will traverse the gel more slowly than DNA without bound protein. Thus, gel shift assays indicate whether a protein binds to a specific DNA fragment. The gel shift assays of FIG. 6 were performed using the Molecular Probes™ EMSA Kit (E33075), which provides background information, materials, and methods for gel shift experiments. The assays were done in the presence or in the absence of DTT (dithiothreitol), as it is not certain which condition most accurately reflects the in vivo condition. DNA was stained with SYBR® Green according to the manufacturer's protocol.
(§2) To determine whether DNA binding was specific, and to examine binding of the less severely truncated proteins ZmSRTF18-del (ALT5) (SEQ ID NO: 26) and ZmSRTF18-del (ALT6) (SEQ ID NO: 27), further gel shift experiments were performed in the presence of DTT with the same 34 bp DNA fragment, or with the corresponding fragment that had the DRE element ACCGAC mutated to TTTTTT. Conditions were also optimized to reduce nonspecific binding by adding 300 mM KCl and sheared salmon DNA.

ZmSRTF18 (SPL VAR4) [2] = target: ZmSRTF18 (SPL VAR4) (Zea mays); assay: as above
ZmSRTF18 (SPL VAR4) (Zea mays), sequence (chain, as listed by the source): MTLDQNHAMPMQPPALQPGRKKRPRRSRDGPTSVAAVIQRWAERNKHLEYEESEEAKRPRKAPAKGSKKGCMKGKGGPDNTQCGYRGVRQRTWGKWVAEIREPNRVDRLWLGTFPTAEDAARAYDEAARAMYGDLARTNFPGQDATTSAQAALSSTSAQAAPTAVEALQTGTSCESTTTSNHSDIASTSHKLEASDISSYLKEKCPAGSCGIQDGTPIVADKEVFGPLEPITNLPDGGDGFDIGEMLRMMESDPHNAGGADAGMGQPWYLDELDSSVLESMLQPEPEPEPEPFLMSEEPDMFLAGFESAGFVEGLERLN
Protocol: as §1, §2

ZmSRTF18-del (ALT2) = ZmSRTF18-del (ALT2) (Zea mays); assay: EMSA; with or without DTT; obvious gel shift
ZmSRTF18-del (ALT2) (Zea mays), sequence (chain, as listed by the source): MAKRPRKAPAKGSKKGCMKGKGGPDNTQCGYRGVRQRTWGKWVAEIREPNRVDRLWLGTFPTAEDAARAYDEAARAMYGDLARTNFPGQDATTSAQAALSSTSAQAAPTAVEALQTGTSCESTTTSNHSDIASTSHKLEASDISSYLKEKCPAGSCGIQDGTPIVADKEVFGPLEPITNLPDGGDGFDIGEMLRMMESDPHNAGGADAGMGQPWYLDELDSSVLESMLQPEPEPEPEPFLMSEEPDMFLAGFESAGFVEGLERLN
Protocol: as §1, §2

ZmSRTF18-del (ALT6) [3] = target: ZmSRTF18-del (ALT6) (Zea mays); assay: EMSA; DTT, 300 mM KCl, sheared salmon DNA; strong specific binding
ZmSRTF18-del (ALT6) (Zea mays), sequence (chain, as listed by the source): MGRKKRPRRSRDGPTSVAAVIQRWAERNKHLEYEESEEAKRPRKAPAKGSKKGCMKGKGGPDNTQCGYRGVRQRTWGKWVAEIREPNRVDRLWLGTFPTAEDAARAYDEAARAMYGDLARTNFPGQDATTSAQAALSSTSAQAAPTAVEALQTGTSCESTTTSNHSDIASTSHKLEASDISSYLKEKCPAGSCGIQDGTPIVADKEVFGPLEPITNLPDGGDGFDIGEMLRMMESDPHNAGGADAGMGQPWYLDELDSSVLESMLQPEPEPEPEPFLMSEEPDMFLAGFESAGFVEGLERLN
Protocol: as §1, §2

ZmSRTF18-del = ZmSRTF18-del (Zea mays); assay: EMSA; no DTT; did not appear to bind
ZmSRTF18-del (Zea mays), sequence (chain, as listed by the source): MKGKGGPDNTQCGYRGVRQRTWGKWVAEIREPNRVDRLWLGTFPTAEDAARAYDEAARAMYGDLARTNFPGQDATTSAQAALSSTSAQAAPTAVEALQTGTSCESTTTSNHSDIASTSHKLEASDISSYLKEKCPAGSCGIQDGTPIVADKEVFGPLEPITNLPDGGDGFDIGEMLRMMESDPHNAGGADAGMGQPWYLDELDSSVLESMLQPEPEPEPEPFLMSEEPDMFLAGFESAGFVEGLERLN
Protocol: as §1

[4] = target: ZmSRTF18 (SPL VAR4) (C71S) (Zea mays, C71S); assay: EMSA; DTT, 300 mM KCl, salmon DNA; binding to DRE stated specific versus this mutant
Protocol: as §1, §2

ZmSRTF18-del (ALT6) [5] = target: ZmSRTF18-del (ALT6) (Zea mays); assay: as above
Protocol: as §1, §2

ZmSRTF18 (SPL VAR4) [6] = target: ZmSRTF18 (SPL VAR4) (Zea mays); assay: as above
Protocol: as §1, §2

ZmSRTF18 (SPL VAR4) (C71S) (Zea mays, C71S), sequence (chain, as listed by the source C71S | C71S C71S): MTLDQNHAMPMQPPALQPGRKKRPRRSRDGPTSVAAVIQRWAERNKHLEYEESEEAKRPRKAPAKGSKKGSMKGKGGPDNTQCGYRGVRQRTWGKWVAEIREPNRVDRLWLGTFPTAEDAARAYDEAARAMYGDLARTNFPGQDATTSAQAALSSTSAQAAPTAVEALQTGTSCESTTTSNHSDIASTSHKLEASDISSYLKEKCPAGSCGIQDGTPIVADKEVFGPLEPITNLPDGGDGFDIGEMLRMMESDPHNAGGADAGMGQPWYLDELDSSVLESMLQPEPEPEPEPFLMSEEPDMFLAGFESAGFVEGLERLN

Binder	binding result [1]	binding result (ZmSRTF18 (SPL VAR4) [2])	binding result (ZmSRTF18-del (ALT2))	binding result (ZmSRTF18-del (ALT6) [3])	binding result (ZmSRTF18-del)	binding result [4]	binding result (ZmSRTF18-del (ALT6) [5])	binding result (ZmSRTF18 (SPL VAR4) [6])
B1	binds	binds	binds	binds	no binding	–	–	–
B2	–	–	–	–	–	no binding	no binding	no binding

Source: patent US20160024513, “MAIZE STRESS RELATED TRANSCRIPTION FACTOR 18 AND USES THEREOF” (PIONEER HI-BRED INTERNATIONAL INC., published 2016)
